Reference: US11351270B2, “Junctophilin-2 fragments and uses therefor” (University of Iowa Research Foundation, priority 2016, dated 2022)

Experiments:
[1] = system: MEF2C Response Element (MRE) from the desmin enhancer; assay: Gel shift assay with MEF2 response element; format: binding; conditions: purified protein
Source text: FIGS. 12A-E. JP2NT represses MEF2-mediated transcription by competing for the MEF2 Response Element (MRE). A) Enrichment of MEF2 binding motifs in ChIP-seq dataset. B) Gel shift assay of JP2NT binding to a desmin promoter-derived DNA sequence containing a WT or mutated MRE in vitro. C) Co-immunoprecipitation of HA-tagged JP2NT binding to MEF2C or Histone H3. D) & E) MEF2 activity assays in 293T cells co-transfected with luciferase under the control of an MRE, MEF2C and WT JP2NT (D) or a mutant lacking the ARR (E, JP2NT^ΔARR). n≥3 independent batches of cells; in each batch of experiments, 3 replicates were performed for each transfection; **p<0.01 vs. Ad-Empty.
The MEF2 family, master regulators of hypertrophic genes in cardiomyocytes, binds to the A/T enriched consensus sequence (C/TTA(A/T)4TA G/A), which shares the same core sequence with TATA box. Thus, it was hypothesized that JP2NT directly interacts with MEF2 binding sites.

genomic DNA = assay: ChIP-seq of JP2NT-OE hearts; format: binding, mouse; conditions: anti-HA ChIP-seq
Description: ChIP-seq from transgenic myocardium was performed using the antibody against HA-tag, which pulls down the HA-tagged JP2NT. Sequencing libraries were prepared for the pulled-down DNA and input DNA (randomly fragmented genomic DNA), and then were subjected to Illumina sequencing (NextSeq 500 platform, 75 bp single end reads). The quality of sequencing reads was evaluated by FastQC (version 0.11.3) software (http://www.bioinformatics.babraham.ac.uk/projects/fastqc/) and the sequencing adaptor was trimmed by Cutadapt (version 1.8.1) software (Martin, 2011). Processed sequencing reads were aligned to mouse genome (mm10) by Bowtie 2 (version 2.2.5) software (Langmead et al., 2012) with the “-end-to-end” mode. MACS (version 1.4.2) software […] was used to call enriched peaks (the cutoff of significance was p value<1e-10). Homer (version 4.8.3) software (Heinz et al., 2010) was used to analyze the enriched genomic features of peaks, identify the target genes, and search the binding motifs.

[2] = system: cardiac transcription profile; assay: RNA-Seq of myocardium of JP2NT-OE mice; format: in vivo, mouse
Description: Illumina TruSeq Stranded mRNA Library Prep Kit was used to prepare the sequencing library for myocardium samples. Sequencing was performed by Illumina HiSeq 2500 platform (2×125 bp paired-end). Kallisto (0.42.5) software (Bray et al., 2016) was used to quantify transcript abundance of mouse transcriptome (Grcm38). Sleuth (0.28.1) software (Pimentel et al., 2018) was used to investigate the differential expression of transcripts between groups (the cutoff of significance was p value<0.01).

chromatin = assay: Biochemical fractionation for chromatin association; format: cell-based; conditions: MNASE digestion, Western blot
Source text: FIGS. 10A-D. JP2NT contains a NLS and a chromatin/DNA-binding domain. A-B) A conserved NLS in JP2 N-terminus is essential for nuclear accumulation of JP2NT. a-c, Subcellular localization of eGFP and eGFP-fused JP2 and eGFP-JP2NT in 293T cells. Full length JP2 localizes on both plasma membrane and ER network (b). […] C-D) JP2NT associates with chromatin. a, Schematic of the subcellular fractionation approach (adapted from Wisoka et al 2001). b, Subnuclear distribution of JP2NT and fragments/mutants. JP2NT is present in both soluble nuclear (S3) and chromatin fractions (S4). Deletion of the MORN domains (JP2NT JP2NT^ΔMORNs) had no effect on subnuclear distribution of JP2NT. However, the amount of chromatin-associated JP2NT was decreased by deletion of the bNLS alone (JP2NT^ΔMORNs/ΔbNLS), deletion of the ARR alone (JP2 JP2NT^ΔMORNs/ΔARR), or deletion of both the bNLS and ARR (JP2^ΔMORNs/ΔbNLS/ΔARR and JP2NT^ΔbNLS/ΔARR). Histone H3: chromatin marker.
Ultracentrifuge based protein fractionation was performed following the protocol described previously (van Berlo et al., 2013). For some experiments, the soluble nuclear fraction (Nu-S) was separately extracted using nuclear extraction buffer (NEB) from the Tissue subcellular fractionation kit of Thermo Scientific, and the remaining insoluble fraction was subjected to MNASE digestion for chromatin fraction extraction. […]

B1: JP2NT: shorter form of Junctophilin-2 including the first 565 amino acids of N-terminus of JP2 (protein, UniProt Q9BR39 1-565, looked up, fragment)
chain: MSGGRFDFDDGGAYCGGWEGGKAHGHGLCTGPKGQGEYSGSWNFGFEVAGVYTWPSGNTFEGYWSQGKRHGLGIETKGRWLYKGEWTHGFKGRYGIRQSSSSGAKYEGTWNNGLQDGYGTETYADGGTYQGQFTNGMRHGYGVRQSVPYGMAVVVRSPLRTSLSSLRSEHSNGTVAPDSPASPASDGPALPSPAIPRGGFALSLLANAEAAARAPKGGGLFQRGALLGKLRRAESRTSVGSQRSRVSFLKSDLSSGASDAASTASLGEAAEGADEAAPFEADIDATTTETYMGEWKNDKRSGFGVSERSSGLRYEGEWLDNLRHGYGCTTLPDGHREEGKYRHNVLVKDTKRRMLQLKSNKVRQKVEHSVEGAQRAAAIARQKAEIAASRTSHAKAKAEAAEQAALAANQESNIARTLARELAPDFYQPGPEYQKRRLLQEILENSESLLEPPDRGAGAAGLPQPPRESPQLHERETPRPEGGSPSPAGTPPQPKRPRPGVSKDGLLSPGAWNGEPSGEGSRSVTPSEGAGRRSPARPATERMAIEALQAPPAPSREPEVALYQG
modifications: GST or adenoviral forms
notes: shorter form of Junctophilin-2 including the first 565 amino acids of N-terminus of JP2
interaction with MEF2C Response Element (MRE) [1]: interacts | JP2NT-binding genomic DNA regions (p<10^−10) (genomic DNA): 18,242 | genes encompassed by JP2NT-binding regions (genomic DNA): 10,587 genes | ERK, TGF-β, CREB and NFκ-B signaling pathways (IPA) ([2]; TAB): predicted inhibition | known genes of negatively influenced transcripts ([2]; TAB): 481 genes | known genes of positively influenced transcripts ([2]; TAB): 476 genes | transcripts negatively influenced ([2]; TAB): 540 transcripts | transcripts positively influenced ([2]; TAB): 542 transcripts | transcripts significantly different in response to cardiac stress ([2]; TAB, linear regression model, p<0.01): 1082 transcripts | known genes from which the significantly different transcripts derive ([2]; TAB, p<0.01): 954 genes | significantly altered genes (p<0.01) at baseline ([2]; baseline, relative to control littermates): 49 genes | association with chromatin (insoluble nuclear fraction) (chromatin): detected in both soluble (S3) and chromatin containing insoluble (P4) nuclear fractions
